Patent US20050153377A1 (ORIENTAL YEAST CO., LTD., priority 1999, published 2005)

T1: CRP (Homo sapiens, UniProt P02741)
T1 construct: purchased Oriental Yeast Co., Ltd. (Japan); host or cells: Escherichia coli
T1 sequence (P02741 19-224): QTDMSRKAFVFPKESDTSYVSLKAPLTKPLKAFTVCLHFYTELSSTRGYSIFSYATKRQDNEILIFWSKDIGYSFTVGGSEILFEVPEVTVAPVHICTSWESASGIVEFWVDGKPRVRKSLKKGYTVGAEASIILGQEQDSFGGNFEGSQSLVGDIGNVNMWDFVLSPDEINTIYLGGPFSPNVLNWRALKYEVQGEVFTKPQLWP

B1: Recombinant human C-reactive protein (rhCRP) expressed in Escherichia coli (protein, UniProt P02741 19-224, looked up)
chain: T1 sequence (P02741 19-224)

Experiments:
[1] = target: T1, CRP; assay: CRP activity to bind to immobilized PC-BSA, PC-antibody method (C); assay type: binding; conditions: Eu3+-labeled anti-CRP antibody, FIG. 6
Protocol: Because it was difficult to immobilize PC-BSA without modification of the microtiter plate, PC-BSA was immobilized on the wells of a microtiter plate by using the PVLA method [Suzuki, N., et al., (1997) Anal. Biochem. 247, 4-12-416]. PVLA (2 mg) was suspended in 1 ml of water by ultrasonication; the resulting PVLA suspension of 40 μl was added to each well, for overnight incubation at 4° C. 1 mM NaIO4 solution was added in 50 μl-portions to each well, and the plate was incubated in darkness at ambient temperature for one hour. After the plate was washed, the PC-BSA solution (100 ng protein in 40 μl of water) was added to each well, followed by mixing with 5 μl of 2% (v/v) borane-pyridine complex, for incubation at 37° C. for 2 hours. The wells were blocked through incubation with 1M glycylglycine (40 μl) at 37° C. for 4 hours, and then followed by incubation with 200 μl of TBS containing 2% (w/v) BSA at 4° C. overnight. After the added solutions were removed at the individual stages of the following method, the wells were washed six times with 200 μl of TBS.
So as to immobilize PC58- or PC7-BSA solution (40 μl containing […] and PC of about 120 pmol or 15 pmol) in water, the solution was left to stand in the PVLA-coated well. After the wells were coated with PC-BSA and blocked with BSA, they were then washed six times with TBS (200 μl). […]

[2] = target: PC58-BSA (conjugate with 58 phosphorylcholine molecules on average bound per one bovine serum albumin molecule) (bovine) (UniProt P02769); assay: quantitative precipitation at saturation, 20 µg PC58-BSA with 50 µg CRP
Chain of PC58-BSA (conjugate with 58 phosphorylcholine molecules on average bound per one bovine serum albumin molecule) (bovine) (P02769 25-607 limits assumed, form in doubt): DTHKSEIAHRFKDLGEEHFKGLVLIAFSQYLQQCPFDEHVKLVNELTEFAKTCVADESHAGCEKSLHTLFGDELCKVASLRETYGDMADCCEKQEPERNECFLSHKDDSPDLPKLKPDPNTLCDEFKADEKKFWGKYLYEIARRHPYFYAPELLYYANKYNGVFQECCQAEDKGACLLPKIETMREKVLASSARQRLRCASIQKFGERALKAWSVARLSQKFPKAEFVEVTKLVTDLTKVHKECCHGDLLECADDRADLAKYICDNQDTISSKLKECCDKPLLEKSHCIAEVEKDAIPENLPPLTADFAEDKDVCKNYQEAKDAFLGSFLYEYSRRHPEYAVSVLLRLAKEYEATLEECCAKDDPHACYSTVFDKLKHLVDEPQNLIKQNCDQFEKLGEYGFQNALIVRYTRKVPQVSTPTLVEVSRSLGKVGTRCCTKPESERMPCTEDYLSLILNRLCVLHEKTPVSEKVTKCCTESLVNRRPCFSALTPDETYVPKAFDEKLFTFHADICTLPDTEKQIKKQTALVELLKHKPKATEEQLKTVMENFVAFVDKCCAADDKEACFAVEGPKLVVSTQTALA

| Molecule | anti-CRP antibody (IgG) bound per PC-BSA-coated well [1] [fmol per well] | amount of CRP in the precipitate [2] [nmol] | amount of PC58-BSA in the precipitate [2] [nmol] | ratio PC58-BSA:CRP in the precipitate (mol CRP (pentamer) per mol PC58-BSA) [2] |
| --- | --- | --- | --- | --- |
| PC58-BSA: conjugate where 58 PC molecules on average are bound per one BSA molecule | 5.6 |  |  |  |
| PC7-BSA: PC conjugate of bovine serum albumin (BSA) produced by the previously reported method | 2.2 |  |  |  |
| B1 |  | 0.37 | 0.17 | 2.2 |
